Assay results as given in US20150087055A1, “ANALOG AND MIXED-SIGNAL COMPUTATION AND CIRCUITS IN LIVING CELLS” (MASSACHUSETTS INSTITUTE OF TECHNOLOGY, priority 2012, published 2015).

Tested on: Plux promoter
Test: LuxR/Plux circuit characterization by flow cytometry (AHL transfer functions)
Format: cell-based, E. coli
Details: no AHL, IPTG=10 mM, GFP, MG1655 Pro cells (FIG. 19C)
Protocol: Overnight cultures of E. coli strains were grown from glycerol freezer stocks at 37° C. 300 rpm in 3 mL of Luria-Bertani (LB)-Miller medium (Fisher #BP1426-2), with appropriate antibiotics: carbenicillin (50 μg/ml), kanamycin (30 μg/ml), chloramphenicol (25 μg/ml). The inducers used were arabinose, isopropyl-β-D-1-thiogalactopyranoside, and AHL 3OC6HSL (Sigma-Aldrich #K3007-10MG). Where appropriate, COPYCONTROL^24 from Epicentre (Madison, Wis.) was added to overnight cultures at 1× active concentration. Overnight cultures were diluted 1:100 into 3 mL fresh LB and antibiotics and were incubated at 37° C. 300 rpm for 20 minutes. […]
Cells were then diluted 4-fold into a new 96-well plate containing fresh 1×PBS and immediately assayed using a BD LSRFORTESSA-HTS. At least 50,000 events were recorded for all data, which was then gated by forward scatter and side scatter using CYFLOGIC v.1.2.1 software (CyFlo, Turku, Finland). The geometric means of the gated fluorescence distributions were calculated by Matlab. Fluorescence values are based on geometric means of flow cytometry populations from three experiments and the error bars represent standard errors of the mean.
For each experiment, fluorescence readings were taken on a BioTek Synergy H1 Microplate reader using BioTek Gen5 software to determine the minimum and maximum expression level for cultures in each 96-well plate. […]

B1: LuxR: quorum-sensing transcriptional activator induced by AHL, activates promoter Plux (protein, UniProt P12746 1-250, looked up)
Transcriptional activator …: MKNINADDTYRIINKIKACRSNNDINQCLSDMTKMVHCEYYLLAIIYPHSMVKSDISILDNYPKKWRQYYDDANLIKYDPIVDYSNSNHSPINWNIFENNAVNKKSPNVIKEAKTSGLITGFSFPIHTANNGFGMLSFAHSEKDNYIDSLFLHACMNIPLIVPSLVDNYRKINIANNKSNNDLTKREKECLAWACEGKSSWDISKILGCSERTVTFHLTNAQMKLNTTNRCQSISKAILTGAIDCPYFKN
**Q.** How did the “repression of the Plux promoter in the absence of AHL” value turn out when B1 was run?
**A.** no repression
